Test results from publication PMC5807053, “Saposin Lipid Nanoparticles: A Highly Versatile and Modular Tool for Membrane Protein Research” (Structure(London, England:1993), 2018).
Where two headings read alike, the source gives them in different places. Residues, ends and D or L forms follow the SMILES beside them.

Key:
[1] = target: T1, PepTSo2 (Shewanella oneidensis, UniProt Q8EHE6); assay: MST di-/tripeptide binding in solution to PepTSo2; settings: 20 °C
T1 sequence (Q8EHE6 1-516): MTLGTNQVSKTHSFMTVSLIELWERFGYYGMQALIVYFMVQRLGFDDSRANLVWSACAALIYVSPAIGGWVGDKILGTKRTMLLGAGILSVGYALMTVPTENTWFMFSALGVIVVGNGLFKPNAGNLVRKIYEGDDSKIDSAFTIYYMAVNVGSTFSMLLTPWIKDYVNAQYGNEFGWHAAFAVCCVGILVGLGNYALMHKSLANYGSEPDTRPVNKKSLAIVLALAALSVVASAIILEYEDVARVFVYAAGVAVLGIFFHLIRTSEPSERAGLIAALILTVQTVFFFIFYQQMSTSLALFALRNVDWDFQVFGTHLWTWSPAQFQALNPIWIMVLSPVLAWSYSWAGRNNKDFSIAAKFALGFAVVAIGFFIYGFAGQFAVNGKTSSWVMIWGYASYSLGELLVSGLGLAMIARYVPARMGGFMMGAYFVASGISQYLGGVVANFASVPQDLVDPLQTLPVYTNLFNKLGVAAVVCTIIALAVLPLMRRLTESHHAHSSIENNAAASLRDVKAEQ
Description: (§1) The samples were loaded in standard glass capillaries. […] Empty SapNPs were used as control measurements.

[2] = target: T2, SapA/POPS empty nanoparticles (Homo sapiens, UniProt P07602); assay: MST control for unspecific peptide binding to empty SapA/POPS nanoparticles
T2 construct: saposin A (residues 60 to 140); made in house; host or cells: E. coli Rosetta gami-2 (DE3)
T2 sequence (P07602 60-140): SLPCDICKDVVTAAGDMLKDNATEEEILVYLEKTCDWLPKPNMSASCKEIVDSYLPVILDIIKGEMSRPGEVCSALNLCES
Description: as §1

[3] = target: PepTSt; settings: MST, 20 °C
Method: PepTSt and PepTSo2 di and tripeptide binding in solution was measured by MST with the Monolith NT.LabelFree (NanoTemper technologies). The proteins were kept at a constant concentration of ∼125 nM and were combined with a series of 16 different peptide concentrations. For DDM- and SapNP-solubilized proteins, the ligands were diluted in DDM buffer (20 mM Tris pH 7.5, 150 mM NaCl, 5 % glycerol, and 0.03 % DDM) and in 1 × PBS, respectively. The thermophoretic movement of the proteins, alone and in complex with different peptides, was monitored and quantified using time-dependent intrinsic tryptophan fluorescence. The samples were loaded in standard glass capillaries. Data were acquired at 20 °C, the LED power was set to 20 %, and the MST power to 20 % and 40 %. The dissociation constant (KD) values were derived from the nonlinear fitting of the normalized fluorescence signal at different ligand concentrations using the NT analysis software. Empty SapNPs were used as control measurements.

[4] = target: peptide transporter PepTSt from Streptococcus thermophilus (Streptococcus thermophilus) (UniProt Q5M4H8); assay: MST; label-free, transporter reconstituted in SapA/BL (brain total lipid extract) nanoparticles at ~125 nM, 16 peptide concentrations, 1x PBS, 20 °C
[5] = target: peptide transporter PepTSt from Streptococcus thermophilus (Streptococcus thermophilus) (UniProt Q5M4H8); assay: MST; label-free, transporter reconstituted in SapA/POPS nanoparticles at ~125 nM, 16 peptide concentrations, 1x PBS, 20 °C
[6] = target: peptide transporter PepTSt from Streptococcus thermophilus (Streptococcus thermophilus) (UniProt Q5M4H8); assay: MST; label-free (intrinsic tryptophan fluorescence), DDM-solubilised transporter at ~125 nM, 16 peptide concentrations, 20 mM Tris pH 7.5, 150 mM NaCl, 5 % glycerol, 0.03 % DDM, 20 °C
[7] = target: small-conductance mechanosensitive channel T2 from Thermoplasma volcanium (Thermoplasma volcanium); assay: SEC-MALS; triple-detection SEC conjugate analysis (UV, refractive index, multi-angle light scattering); 60 uL T2 at 5 mg/mL on SD200 10/300 in 20 mM Tris pH 7.5, 150 mM NaCl, 5 % glycerol, 0.03 % DDM
[8] = Protein thermal unfolding by dye-free nanoDSF; type: physicochemical; settings: purified protein alone, 20 to 95 °C
Method: The stability of the different DDM-solubilized or SapNP-reconstituted proteins was followed using a nanoDSF (Prometheus NT.48 form NanoTemper Technologies, GmbH). The dye-free proteins were excited at 280 nm and their intrinsic fluorescence at 350 and 330 nm were measured as a function of temperature to monitor the fluorescence changes upon heat unfolding. 10 μL of protein solution at a concentration of 0.5 mg/mL were loaded in a glass capillary, and the unfolding was measured in duplicates at a heating rate of 1 °C/min between 20 and 95 °C. The first derivative of the unfolding curves (350/330 nm ratio) was used to determine the transition midpoint (Tm).

[9] = design: method as in Frauenfeld et al., 2016; settings: ref Frauenfeld et al., 2016, cited from earlier work

Molecule C[C@H](N)C(=O)N[C@@H](Cc1ccccc1)C(=O)N[C@@H](C)C(=O)O [Ala-Phe-Ala] (H-Ala-Phe-Ala-OH; N-terminus and C-terminus assumed) has a Kd ([1]; PepTSo2 in DDM) of 3.4 ± 1.3 mM and a Kd ([1]; PepTSo2 reconstituted in SapA/BL) of 5 ± 3 mM.

With CC(C)C[C@H](N)C(=O)N[C@@H](C)C(=O)O [Leu-Ala] (H-Leu-Ala-OH; N-terminus and C-terminus assumed) the unspecific peptide binding [2] was “no unspecific peptide binding”, the Kd ([3]; PepTSt in DDM) was 16.6 ± 3.6 mM and the Kd ([3]; PepTSt in SapA/BL) was 16.4 ± 3.6 mM. It also gave a Kd ([3]; PepTSt in SapA/POPS) of 5.49 ± 1 mM.

Work on dipeptide Leu-Ala yielded a Kd [4] of 16.4 mM, a Kd [5] of 5.49 mM and a Kd [6] of 16.6 mM.

Molecule “small-conductance mechanosensitive channel T2 from Thermoplasma volcanium (natural protein)” has a stoichiometry N [7] of 7.

B1: saposin A: human saposin A, Prosaposin residues 60 to 140, recombinant (protein)
chain: T2 sequence (P07602 60-140)
modifications: left off: His6, N-terminal, cleaved
notes: human saposin A, Prosaposin residues 60 to 140, recombinant
In the case of B1, the unfolding transition [8] is reported as “does not show an unfolding transition”.

B2: PepTSo2: peptide transporter from Shewanella oneidensis (protein)
chain: T1 sequence (Q8EHE6 1-516)
In the case of B2, the Tm ([9]; encapsulated in SapA/BL nanoparticles) is given as 72 °C and the Tm ([9]; in the detergent nonyl-β-D-maltopyranoside) is given as 43 °C.
